Test results: the nanobody polyreactivity screen of Harvey et al. (2022)

Test: yeast display, Sf9 membrane polyspecificity reagent, FACS + sequencing; frameworks hold sequencing errors
Procedure, shortened: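 Galactose induction of a Saccharomyces cerevisiae BJ5465 synthetic nanobody display library ran 36–48 hours. The cells were then stained for 1 hour at 4 °C with 10% biotinylated, detergent-solubilized Sf9 membrane reagent, pulled down on streptavidin microbeads and FACS-sorted into low and high (top ~1%) gates on expression and reagent-binding fluorescence. Labels for polyreactivity follow the gate of origin.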

| Sequence | polyreactivity (PSR sort gate) |
| --- | --- |
| QVQLVESGGGLVQAGGSLRLSCAASGRIFGSNAMGWYRQAPAKERELVAAITFRTASTYYADSVKGRFTISRDNAKNTVYLQMNSLKPEDTSVYSCNADKFSAPPLYEYEYWGQGTQVTVSS | low polyreactivity |
| QVQLVESGGGLVQAGGSLRLSCAASGRIFGSYAMGWYRQAPGKERELVATISRRGGSTYYADSVKGRFTISRDNAKNTVYLQMNRLKPEDTAVYYCNADYKITKTWSGTIRYYYWGQGTQVTVSS | high polyreactivity |
| QVQLVESGGGLVQAGGSLRLSCAASGRIFGSYGMGWYRQAPGKEWELVAAITPSGTSTYYADSVKGRFTISRDNAKNTVYLEMNSLKPEDTAVYNCNALFYRRYAFAFGYWRQGTQVTVSS | high polyreactivity |
| QVQLVESGGGLVQAGGSLRLSCAASGRIFGTNAMGWYRQAPGKERELVAAITWNADDTYYADSVKGRFTISRDNAKNTVYLQMNSLKPEDTAVYYCAADSYEGYYYWGQGTQVTVSS | low polyreactivity |
| QVQLVESGGGLVQAGGSLRLSCAASGRIFGTNAMGWYRQAPGKERELVADITSGGSTNYADSVKGRFTISRDNAKNTVYLQMNSLKPEDTAVYYCAADVIADLRWYRDEYWGQGTQLTVSS | low polyreactivity |
| QVQLVESGGGLVQAGGSLRLSCAASGRIFGTYAMGWYRQAPGKERELVAAITSGGRTYYADSVKGRFTISRDNAKNTVYLQMNSLKPEDTAVYYCNAVRYYVYDRRFNYWGQGTQVTVSS | high polyreactivity |
| QVQLVESGGGLVQAGGSLRLSCAASGRIFGTYAMGWYRQAPRKERELVAAITQSARSTYYADSVKGRFTISRDNAKNTVYLQMNSLKPEDTAVYYCAAVGYYTKRRFGYWGQGTQVTVSS | high polyreactivity |
| QVQLVESGGGLVQAGGSLRLSCAASGRIFGTYTKGWYRQAPGKERELVAAITTGGITNYADSVKGRFTISRDNAKNTVYLQMKSLKPEDTAVYYCNARWDYGAYEYWGQGTQVTVSS | low polyreactivity |
| QVQLVESGGGLVQAGGSLRLSCAASGRIFGVNAMGRYRQAPGKERELVADISSGGSTYYADSVKGRFTISRDNAKNTVYLQMNSLNPEDTAVYSCAVDKYVFVSYSFYFEYDYWGQGTQVTVSS | low polyreactivity |
| QVQLVESGGGLVQAGGSLRLSCAASGRIFGVNAMGWYRQAPGKERELVAAIDWSDGSTYYADSVKGRFTISRDNAKNTVYLQMNSLKPEDTAVYYCATDYSYGDYYDDEFPSDDFDYWGQGTQVTVSS | low polyreactivity |
| QVQLVESGGGLVQAGGSLRLSCAASGRIFGVNAMGWYRQAPGKERELVAAINYSGGRTSYADSVKGRFTISRDNEKNTVYLQMKSLKPEDTAVYYCAKYGLRGGYLYYYWGQGTQVTVSS | high polyreactivity |
| QVQLVESGGGLVQAGGSLRLSCAASGRIFGVNAMGWYRQAPGKERELVAAITSGGSTNYADSVKGRFTISRDNAKNTVYLQMNSLKPEDTAVYYCAAVNYYWGQGTQVTVSS | low polyreactivity |
| QVQLVESGGGLVQAGGSLRLSCAASGRIFGVNAMGWYRQAPGKERELVADITGSGGSTYYADSVKGRFTISRDNAKNTVYLQMNCLKAEDTAVYYCATRWIGYTSQWDHFEYDYWGQGTQVTVSS | low polyreactivity |
| QVQLVESGGGLVQAGGSLRLSCAASGRIFGVNAMGWYRQAPGKERELVAVISSGGSTYYADSVKGRFTISRDNAKKTVYLQMNSLKPEDTEVYYCDRKSYNFIPGNREYDYWGQGTQVTVSS | low polyreactivity |
| QVQLVESGGGLVQAGGSLRLSCAASGRIFGVNAMGWYRQAPGKVRELVAAIRYSGGSTYYADSVKGRFTISRDYAKNTVYLQMNSLKPEDTAVYYCAKARYTYSWSFGYWGQGTQVTVSS | low polyreactivity |
| QVQLVESGGGLVQAGGSLRLSCAASGRIFGVYALGWYRQAPGKARELVAVINGRGSRTYYADSVKGRFRISRDNAKNTVYLQMNSLKPEDTAVYYCAAGYPASEYDYWGQGTQVTVSS | high polyreactivity |
| QVQLVESGGGLVQAGGSLRLSCAASGRIFGVYAMGWYREAPGKEREVVAAITYRGASTYADSVKGRFTISRVNAKKTVYLQMNSLKPEDTAVYYCATYPQYYFRYDYWGQGTQVTVSS | high polyreactivity |
